B1: Cell division cycle and apoptosis regulator protein 1, residues 625 to 674; numbered along this chain, Q8IX12 (parent)
chain: ISTPTHWSKLDPKTMKVNDLRKELESRALSSKGLKSQLIARLTKQLKVEE

Variants of: B1
Test: abundance fitness (aPCA) (normalised: wild type 0, dead -1); higher = more abundant; growth selection in yeast, the domain comes from the species named
Conditions: Homo sapiens

Abundance fitness of substitutions, site by site:
E25: Y -0.799 | F -0.568 | V -0.155 | W -0.304 | T -0.18 | R -0.154 | A -0.443
K9: Y -0.158 | D -0.084 | L -0.066 | W -0.235 | G -0.154
T14: A -0.019 | K 0.257 | I 0.007 | D -0.061 | H 0.135 | L -0.131 | Q -0.022 | E -0.011
W7: K -0.142 | D -0.197 | M -0.122 | S -0.104 | I -0.258 | L -0.223 | G -0.187
E23: W -0.661 | L -0.913 | N -0.563 | S -0.617 | V -0.924 | Q -0.228 | K -1 | C -0.677
S26: P -0.61 | I -0.012 | Y 0.044 | T 0.106 | Q 0.001 | H 0.053 | N 0.025 | A 0.088
S36: E -0.151 | A -0.121 | T -0.049 | F -0.186 | P -0.005 | M -0.169
K22: M -0.028 | C -0.134 | W -0.209 | N -0.097 | Q -0.136
S2: M 0.127 | H -0.037
D19: P -0.334 | E -0.275 | S 0.038 | Y -0.023 | H 0.045 | V -0.167 | C -0.02
V17: C 0.115 | G -0.146 | D -0.114 | S -0.036 | P -0.182
L46: S -0.676 | T -0.467 | I -0.146 | N -0.744 | V -0.258 | A -0.549 | G -0.787 | R -0.554 | P -0.822
R41: M -0.356 | I -0.416 | A -0.377 | W -0.877 | F -0.814 | H -0.374
M15: R -0.758 | I -0.711 | W -0.899 | F -1.02 | H -0.996 | V -0.745
H6: P 0.044 | Y -0.042 | E 0.062 | S -0.056 | N 0.054 | F -0.037 | I -0.014 | Q -0.062
Q45: G -0.364 | V -0.211 | F -0.237 | T -0.093 | W -0.244 | E -0.118 | L -0.46 | D -0.596 | S -0.144
L24: G -0.905 | K -0.879 | Q -0.891 | C -0.393 | I -0.586 | V -0.685 | M -0.678 | W -1.11
L34: T -0.06 | M -0.072 | F -0.195 | R 0.048 | A -0.111 | K 0.079 | S -0.016 | D -0.062
G33: C -1 | N -1.2 | D -0.62 | A -0.891 | M -1.03 | F -0.98
A40: P -0.12 | D -0.05 | I -0.186 | C -0.07
Q37: W -0.459 | V 0.002 | G -0.253 | E 0.058 | K -0.108 | M -0.042
R27: P -0.784 | K -0.822 | Y -0.995 | D -0.747 | S -0.818 | N -0.871
E50: V -0.231 | G -0.228 | D -0.495
D11: R 0.078 | W -0.109 | M 0.028 | L -0.054 | H 0.074
L38: H -0.628 | G -0.603 | K -0.324 | Q -0.366 | M -0.049 | R -0.583 | E -0.423 | N -0.666
K47: A -0.146 | Y -0.261 | W -0.334 | R -0.083 | P -0.806 | Q -0.196 | T -0.131 | C -0.265
P12: E -0.754 | K -0.875 | Q -0.749 | A -0.142 | W -0.488
K16: M -0.24 | R -0.173 | V -0.228 | I -0.127 | A -0.227 | P -0.15
K13: F -0.308 | W -0.474 | Q -0.13 | V -0.04 | P -0.187 | Y -0.23 | E -0.195 | S -0.147
N18: L 0.113 | D -0.038 | R 0.079 | G 0.019 | K 0.124 | W -0.015 | C 0.051 | Y -0.036
K32: Y -0.138 | W -0.089 | R -0.105 | H -0.05 | A -0.153 | N -0.143 | E -0.104
S31: G 0.014 | N -0.095 | K -0.132 | D -0.156 | P -0.062 | F -0.101 | V -0.041 | T -0.052 | C -0.013 | M -0.066
V48: R -0.02 | G -0.154 | D -0.114 | E -0.023 | W -0.178 | Y -0.207
T3: I -0.114 | A -0.203 | F -0.121 | M -0.004 | E -0.007 | C -0.025 | D -0.136
K35: S -0.288 | Q -0.299 | Y -0.333 | M -0.244 | A -0.341
A28: D 0.129 | R 0.151 | M 0.072 | V -0.016
I39: N -0.26 | A -0.145 | R -0.013 | D -0.266 | M -0.1 | K 0.016 | E -0.102 | P -0.366 | V 0.022 | C -0.059 | F -0.518
L42: P -0.472 | W -0.929 | S -0.563 | F -0.56 | E -0.547 | A -0.662 | R -0.733
S8: W -0.272 | F -0.338 | R -0.189 | E -0.006 | G -0.036 | H -0.074
R21: H -0.199 | I -0.006 | V -0.106 | Q -0.259
S30: N 0.126 | E -0.071 | V -0.047 | G -0.026 | D 0.016 | A -0.05 | M -0.067
K44: A -0.161 | T -0.128 | S -0.19 | M -0.355 | I -0.296 | E -0.151 | C -0.366
L29: W -0.746 | R -0.213 | K -0.226 | G -0.853 | Y -0.384 | A -0.899 | Q -0.172 | F -0.112 | H -0.286 | I 0.045
L10: S -0.577 | K -0.538 | Y -0.709 | H -0.701 | G -0.562 | E -0.704 | I -0.203 | M -0.107 | V -0.231 | F -0.535 | Q -0.516
T43: P -0.721 | R 0.103 | Y -0.281 | C -0.071 | A -0.01 | H -0.105 | W -0.202 | N -0.021
P4: R 0.075 | N -0.133 | F -0.072 | Q -0.108 | W -0.142
I1: N -0.33 | T -0.145 | D -0.641 | A 0.049 | R -0.458 | K -0.257 | W -0.478
T5: W -0.616 | Y -0.423 | A 0.026 | I -0.332 | S 0.042 | F -0.772
L20: Y -0.751 | A -0.618 | N -1.08 | H -0.752 | F -0.65
E49: W -1 | A -0.867 | R -0.935 | L -0.983 | I -0.943 | Y -1.21
